Laboratory results published in paper PMC9352680, “A comprehensive thermodynamic model for RNA binding by the Saccharomyces cerevisiae Pumilio protein PUF4”.

T1: PUF4 RNA-binding domain (Saccharomyces cerevisiae, UniProt P25339 537-888)
T1 sequence: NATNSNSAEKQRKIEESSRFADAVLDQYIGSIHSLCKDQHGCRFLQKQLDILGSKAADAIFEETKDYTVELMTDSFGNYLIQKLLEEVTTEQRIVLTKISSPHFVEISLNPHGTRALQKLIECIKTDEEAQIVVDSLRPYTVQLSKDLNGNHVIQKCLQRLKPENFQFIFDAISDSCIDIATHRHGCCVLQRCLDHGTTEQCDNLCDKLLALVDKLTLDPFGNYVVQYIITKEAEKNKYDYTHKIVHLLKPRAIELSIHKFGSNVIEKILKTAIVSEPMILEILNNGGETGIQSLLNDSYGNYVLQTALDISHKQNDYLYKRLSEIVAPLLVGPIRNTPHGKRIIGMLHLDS

B1: Ib_S4_P4E.1_K4.1_C4.1_H4.1_A4.1_F4.1_[T8G]_[A9C]_T4.1 (ssRNA)
RNA: UUUGACAACUGAUCGUUCUUUCUUGUAUAUGCUUCUUUCUCGAUCAGUUGUCUUU
B2: Ib_S4_P4E.1_K4.1_C4.1_H4.1_A4.1_[A6T]_F4.1_[T8C]_T4.1 (ssRNA)
RNA: UUUGACAACUGAUCGUUCUUUCUUGUAUUUCAUUCUUUCUCGAUCAGUUGUCUUU
B3: Ib_S4_P4E.1_K4.1_C4.1_H4.1_[G2A]_A4.1_F4.1_[A9G]_T4.1 (ssRNA)
RNA: UUUGACAACUGAUCGUUCUUUCUUAUAUAUUGUUCUUUCUCGAUCAGUUGUCUUU
B4: Ib_S4_P4E.1_K4.1_C4.1_H4.1_A4.1_[T5A]_F4.1_[T8A]_T4.1 (ssRNA)
RNA: UUUGACAACUGAUCGUUCUUUCUUGUAAAUAAUUCUUUCUCGAUCAGUUGUCUUU
B5: Ib_S4_P4E.1_K4.1_C4.1_H4.1_[A4C]_A4.1_F4.1_[A9T]_T4.1 (ssRNA)
RNA: UUUGACAACUGAUCGUUCUUUCUUGUCUAUUUUUCUUUCUCGAUCAGUUGUCUUU
B6: Ib_S4_P4E.1_K4.1_C4.1_H4.1_[T1G]_A4.1_F4.1_[T8A]_T4.1 (ssRNA)
RNA: UUUGACAACUGAUCGUUCUUUCUGGUAUAUAAUUCUUUCUCGAUCAGUUGUCUUU
B7: Ib_S4_P4E.1_K4.1_C4.1_H4.1_[A4G]_A4.1_F4.1_[T8A]_T4.1 (ssRNA)
RNA: UUUGACAACUGAUCGUUCUUUCUUGUGUAUAAUUCUUUCUCGAUCAGUUGUCUUU
B8: Ib_S4_P4E.1_K4.1_C4.1_H4.1_A4.1_[T5C]_F4.1_[T8C]_T4.1 (ssRNA)
RNA: UUUGACAACUGAUCGUUCUUUCUUGUACAUCAUUCUUUCUCGAUCAGUUGUCUUU
B9: Ib_S4_P4E.1_K4.1_C4.1_H4.1_[T3C]_A4.1_F4.1_[A9C]_T4.1 (ssRNA)
RNA: UUUGACAACUGAUCGUUCUUUCUUGCAUAUUCUUCUUUCUCGAUCAGUUGUCUUU
B10: Ib_S4_P4E.1_K4.1_C4.1_H4.1_[A4C]_A4.1_F4.1_[A9G]_T4.1 (ssRNA)
RNA: UUUGACAACUGAUCGUUCUUUCUUGUCUAUUGUUCUUUCUCGAUCAGUUGUCUUU
B11: Ib_S4_P4E.1_K4.1_C4.1_H4.1_[T3C]_A4.1_F4.1_[A9T]_T4.1 (ssRNA)
RNA: UUUGACAACUGAUCGUUCUUUCUUGCAUAUUUUUCUUUCUCGAUCAGUUGUCUUU
B12: Ib_S4_P4E.1_K4.1_C4.1_H4.1_[T1C]_A4.1_F4.1_[T8C]_T4.1 (ssRNA)
RNA: UUUGACAACUGAUCGUUCUUUCUCGUAUAUCAUUCUUUCUCGAUCAGUUGUCUUU
B13: Ib_S4_P4E.1_K4.1_C4.1_H4.1_[T1A]_A4.1_F4.1_[T8A]_T4.1 (ssRNA)
RNA: UUUGACAACUGAUCGUUCUUUCUAGUAUAUAAUUCUUUCUCGAUCAGUUGUCUUU
B14: Ib_S4_P4E.1_K4.1_C4.1_H4.1_A4.1_[T7A]_F4.1_[T8A]_T4.1 (ssRNA)
RNA: UUUGACAACUGAUCGUUCUUUCUUGUAUAAAAUUCUUUCUCGAUCAGUUGUCUUU
B15: Ib_S4_P4E.1_K4.1_C4.1_H4.1_[T3C]_A4.1_F4.1_[A9G]_T4.1 (ssRNA)
RNA: UUUGACAACUGAUCGUUCUUUCUUGCAUAUUGUUCUUUCUCGAUCAGUUGUCUUU
B16: Ib_S4_P4E.1_K4.1_C4.1_H4.1_A4.1_F4.1_[T8C]_[A9G]_T4.1 (ssRNA)
RNA: UUUGACAACUGAUCGUUCUUUCUUGUAUAUCGUUCUUUCUCGAUCAGUUGUCUUU
B17: Ib_S4_P4E.1_K4.1_C4.1_H4.1_[A4T]_A4.1_F4.1_[A9C]_T4.1 (ssRNA)
RNA: UUUGACAACUGAUCGUUCUUUCUUGUUUAUUCUUCUUUCUCGAUCAGUUGUCUUU
B18: Ib_S4_P4E.1_K4.1_C4.1_H4.1_[A4C]_A4.1_F4.1_[T8A]_T4.1 (ssRNA)
RNA: UUUGACAACUGAUCGUUCUUUCUUGUCUAUAAUUCUUUCUCGAUCAGUUGUCUUU
B19: Ib_S4_P4E.1_K4.1_C4.1_H4.1_[T1C]_A4.1_F4.1_[A9C]_T4.1 (ssRNA)
RNA: UUUGACAACUGAUCGUUCUUUCUCGUAUAUUCUUCUUUCUCGAUCAGUUGUCUUU
B20: Ib_S4_P4E.1_K4.1_C4.1_H4.1_[T1A]_A4.1_F4.1_[A9G]_T4.1 (ssRNA)
RNA: UUUGACAACUGAUCGUUCUUUCUAGUAUAUUGUUCUUUCUCGAUCAGUUGUCUUU
B21: Ib_S4_P4E.1_K4.1_C4.1_H4.1_[T1G]_A4.1_F4.1_[A9G]_T4.1 (ssRNA)
RNA: UUUGACAACUGAUCGUUCUUUCUGGUAUAUUGUUCUUUCUCGAUCAGUUGUCUUU
B22: Ib_S4_P4E.1_K4.1_C4.1_H4.1_A4.1_[T7A]_F4.1_[T8C]_T4.1 (ssRNA)
RNA: UUUGACAACUGAUCGUUCUUUCUUGUAUAACAUUCUUUCUCGAUCAGUUGUCUUU
B23: Ib_S4_P4E.1_K4.1_C4.1_H4.1_[T1G]_A4.1_F4.1_[T8C]_T4.1 (ssRNA)
RNA: UUUGACAACUGAUCGUUCUUUCUGGUAUAUCAUUCUUUCUCGAUCAGUUGUCUUU
B24: Ib_S4_P4E.1_K4.1_C4.1_H4.1_[A4C]_A4.1_F4.1_[A9C]_T4.1 (ssRNA)
RNA: UUUGACAACUGAUCGUUCUUUCUUGUCUAUUCUUCUUUCUCGAUCAGUUGUCUUU
B25: Ib_S4_P4E.1_K4.1_C4.1_H4.1_[A4G]_A4.1_F4.1_[A9C]_T4.1 (ssRNA)
RNA: UUUGACAACUGAUCGUUCUUUCUUGUGUAUUCUUCUUUCUCGAUCAGUUGUCUUU
B26: Ib_S4_P4E.1_K4.1_C4.1_H4.1_A4.1_[T7C]_F4.1_[T8A]_T4.1 (ssRNA)
RNA: UUUGACAACUGAUCGUUCUUUCUUGUAUACAAUUCUUUCUCGAUCAGUUGUCUUU
B27: Ib_S4_P4E.1_K4.1_C4.1_H4.1_A4.1_F4.1_[T8A]_[A9G]_T4.1 (ssRNA)
RNA: UUUGACAACUGAUCGUUCUUUCUUGUAUAUAGUUCUUUCUCGAUCAGUUGUCUUU
B28: Ib_S4_P4E.1_K4.1_C4.1_H4.1_[G2C]_A4.1_F4.1_[T8C]_T4.1 (ssRNA)
RNA: UUUGACAACUGAUCGUUCUUUCUUCUAUAUCAUUCUUUCUCGAUCAGUUGUCUUU
B29: Ib_S4_P4E.1_K4.1_C4.1_H4.1_[A4G]_A4.1_F4.1_[T8C]_T4.1 (ssRNA)
RNA: UUUGACAACUGAUCGUUCUUUCUUGUGUAUCAUUCUUUCUCGAUCAGUUGUCUUU
B30: Ib_S4_P4E.1_K4.1_C4.1_H4.1_A4.1_[T5A]_F4.1_[A9G]_T4.1 (ssRNA)
RNA: UUUGACAACUGAUCGUUCUUUCUUGUAAAUUGUUCUUUCUCGAUCAGUUGUCUUU
B31: Ib_S4_P4E.1_K4.1_C4.1_H4.1_A4.1_[T7G]_F4.1_[T8C]_T4.1 (ssRNA)
RNA: UUUGACAACUGAUCGUUCUUUCUUGUAUAGCAUUCUUUCUCGAUCAGUUGUCUUU
B32: Ic_S4_P4E.1_K4.1_C4.1_H4.1_A4.1_F4.1_[T8A]_[A9C]_T4.1 (ssRNA)
RNA: UUUGACAACUGAUCGUUCUUUCUUGUAUAUACUUCUUUCUCGAUCAGUUGUCUUU
B33: Ib_S4_P4E.1_K4.1_C4.1_H4.1_A4.1_[T5A]_F4.1_[T8C]_T4.1 (ssRNA)
RNA: UUUGACAACUGAUCGUUCUUUCUUGUAAAUCAUUCUUUCUCGAUCAGUUGUCUUU
B34: Ib_S4_P4E.1_K4.1_C4.1_H4.1_[G2C]_A4.1_F4.1_[A9C]_T4.1 (ssRNA)
RNA: UUUGACAACUGAUCGUUCUUUCUUCUAUAUUCUUCUUUCUCGAUCAGUUGUCUUU
B35: Ib_S4_P4E.1_K4.1_C4.1_H4.1_A4.1_[A6C]_F4.1_[T8C]_T4.1 (ssRNA)
RNA: UUUGACAACUGAUCGUUCUUUCUUGUAUCUCAUUCUUUCUCGAUCAGUUGUCUUU
B36: Ib_S4_P4E.1_K4.1_C4.1_H4.1_A4.1_[A6G]_F4.1_[T8C]_T4.1 (ssRNA)
RNA: UUUGACAACUGAUCGUUCUUUCUUGUAUGUCAUUCUUUCUCGAUCAGUUGUCUUU
B37: Ib_S4_P3E.1_K3.1_C3.1_H3.1_[A4C]_A3.1_[T5A]_F3.1_T3.1 (ssRNA)
RNA: UUUGACAACUGAUCGUUCUUUCUUGUCAAUAUUCUUUCUCGAUCAGUUGUCUUU
B38: Ia_S4_P3E.1_K3.1_C3.1_H3.1_A3.1_F3.1_[A8C]_T3.1 (ssRNA)
RNA: UUUGACAACUGAUCGUUCUUUCUUGUAUAUCUUCUUUCUCGAUCAGUUGUCUUU
B39: Ib_S4_P3E.1_K3.1_C3.1_H3.1_[A4C]_A3.1_[A6C]_F3.1_T3.1 (ssRNA)
RNA: UUUGACAACUGAUCGUUCUUUCUUGUCUCUAUUCUUUCUCGAUCAGUUGUCUUU
B40: Ia_S4_P3E.1_K3.1_C3.1_H3.1_[T1A]_A3.1_F3.1_T3.1 (ssRNA)
RNA: UUUGACAACUGAUCGUUCUUUCUAGUAUAUAUUCUUUCUCGAUCAGUUGUCUUU
B41: Ia_S4_P3E.1_K3.1_C3.1_H3.1_A3.1_F3.1_[A8G]_T3.1 (ssRNA)
RNA: UUUGACAACUGAUCGUUCUUUCUUGUAUAUGUUCUUUCUCGAUCAGUUGUCUUU
B42: Ib_S4_P3E.1_K3.1_C3.1_H3.1_[A4C]_A3.1_[A6T]_F3.1_T3.1 (ssRNA)
RNA: UUUGACAACUGAUCGUUCUUUCUUGUCUUUAUUCUUUCUCGAUCAGUUGUCUUU
B43: Ib_S4_P3E.1_K3.1_C3.1_H3.1_[A4G]_A3.1_[A6T]_F3.1_T3.1 (ssRNA)
RNA: UUUGACAACUGAUCGUUCUUUCUUGUGUUUAUUCUUUCUCGAUCAGUUGUCUUU
B44: Ic_S4_P3E.1_K3.1_C3.1_H3.1_A3.1_[T5C]_[A6T]_F3.1_T3.1 (ssRNA)
RNA: UUUGACAACUGAUCGUUCUUUCUUGUACUUAUUCUUUCUCGAUCAGUUGUCUUU
B45: Ib_S4_P3E.1_K3.1_C3.1_H3.1_[A4C]_A3.1_[A6G]_F3.1_T3.1 (ssRNA)
RNA: UUUGACAACUGAUCGUUCUUUCUUGUCUGUAUUCUUUCUCGAUCAGUUGUCUUU
B46: Ib_S4_P3E.1_K3.1_C3.1_H3.1_[A4G]_A3.1_[A6C]_F3.1_T3.1 (ssRNA)
RNA: UUUGACAACUGAUCGUUCUUUCUUGUGUCUAUUCUUUCUCGAUCAGUUGUCUUU
B47: Ib_S4_P3E.1_K3.1_C3.1_H3.1_A3.1_[T5C]_[A6C]_F3.1_T3.1 (ssRNA)
RNA: UUUGACAACUGAUCGUUCUUUCUUGUACCUAUUCUUUCUCGAUCAGUUGUCUUU
B48: Ia_S4_P3E.1_K3.1_C3.1_H3.1_[T1G]_A3.1_F3.1_T3.1 (ssRNA)
RNA: UUUGACAACUGAUCGUUCUUUCUGGUAUAUAUUCUUUCUCGAUCAGUUGUCUUU

Target: T1, PUF4 RNA-binding domain
Assay: Mg; RNA-MaP; 20 mM Na-HEPES pH 7.4, 30 mM KOAc, 0.75 mM MgCl2, 0.1% Tween-20, 5% glycerol, 0.1 mg/mL BSA, 2 mM DTT; 25 C; 0.0125-409.6 nM protein
Conditions: tags: N-His6-TEV cleaved; C-SNAP kept, Cy3B-labelled; label: tethered on chip by stalled RNA polymerase

Row | Binder | Kd [nM]
1 | B1 | 20.6
2 | B2 | 84.2
3 | B3 | 329
4 | B4 | 27.4
5 | B5 | 268
6 | B6 | 1410
7 | B7 | 6.19
8 | B8 | 8.87
9 | B9 | > 2300
10 | B10 | 252
11 | B11 | 1000
12 | B12 | 652
13 | B13 | 1680
14 | B14 | 29.8
15 | B15 | > 2300
16 | B16 | 17.1
17 | B17 | 406
18 | B18 | 458
19 | B19 | 1020
20 | B20 | 2230
21 | B21 | 1710
22 | B22 | 19.6
23 | B23 | > 2300
24 | B24 | 501

Row | Binder | Kd [nM]
25 | B25 | 12.1
26 | B26 | 18.4
27 | B27 | 9.97
28 | B28 | 666
29 | B29 | 24.4
30 | B30 | 19.7
31 | B31 | 51.1
32 | B32 | 6.29
33 | B33 | 78.4
34 | B34 | 1530
35 | B35 | 22.1
36 | B36 | 136
37 | B37 | 1450
38 | B38 | 12.3
39 | B39 | 1370
40 | B40 | 819
41 | B41 | 8.32
42 | B42 | 1140
43 | B43 | 92.3
44 | B44 | 16.8
45 | B45 | 40.5
46 | B46 | 117
47 | B47 | 14.8
48 | B48 | 1280
